Measured values reported in the DeepSol protein solubility set.

Assay: soluble on expression in E. coli; label from the status in PepcDB or PDB records
For “MGSDKIHHHHHHVKSDYYKEPIVINTDALIPPSPSDDMWKNRKRAYYMYDAPDVPTCSIVVTGYNRLHKTKYCVECILKYTRDVDYELILVDNGSDDGTLDFFQSVPYENKTIIRMTQNKGATLPFKYYINILKGKYIVNISNDIYVTQNWLSNLLKCYQSDPKIGFVEPVSSNVSNLQEVDLGFSDFDDMQKKAAAFNQSDPAKWEERLRLISVINVFLRDVLDNVGINDAAYFYDFIEDDLCARIRRMGYKLVLCRDTWICHDHDFRNLEDKDPVAFQASLEHGRAVYRKKYYGIDPWDDINNFELTLLAQLDTAKIPRAVKALTVDVRCGAPALEIRNRLKRRGITDVASYAFTTAAKYYLDLQTVCSEVQCDRIDFIQQHYANGTFDLVVLGEPVNTYPLPVRLLQNLYDFLKPGGLLLFKVRNTDDYRAFLRSIGMEVASDPDLPASTPLNEVLACLKLFGAVDCTVAGELESISVADQEFLMNKLKAANPNADQATLNRLCIKDYCIKVIRK”, the “soluble on expression in E. coli” value was “not soluble”. For “MEGRIPPHSLEAEQSVLGAILLDYQVLDEIEGLLPTPEAFYAEAHRKIYAAMQGLRAEGSPVDLVTLAEELSRRGELDGVGGISYLMQLSEATPTAAYAEHYARIVAEKWTLRRLIQAAGEAMRLAYEEAGSLDEILDQAGKRILEVALAQTEVEARSMRELVHETFEHIEALFQNKGETAGVRTGFKELDQLIGTLAPGSLNIIAARPAMGKTAFALTIAQHAALKEGVGVGIYSLEMPAAQLVLRMMCSEARIDMNRVRLGQLSDRDFSRLVDVAGRLSEAPIFIDDTPDLTLMELRARARRLRSQHNVGLIIIDYLQLMSGPGGGQKGENRQQEIAAISRGLKALARELGVPVIALSQLSRAVEARPNKRPMLSDLRESGSIEQDADLVMFIYRDEYYNPHSEKAGIAEIIVGKQRNGPTGTVELQFHAQHVRFNDLAKEP”, the “soluble on expression in E. coli” value was “soluble”. For “MGSDKIHHHHHHMIFKKMINEFKMEIKNNKSKINPIDVYRYSIFFRNYIESTAEDALKNGINLSLLEKSCLKESSKSLLGLKVQLKEALLEAMISYRFNGAGYILVKPKSEDEDLSKKVNSELPTGFKYLDFQKIINKRDSSYVEYLSNSKDPDDFERARVVKIDKSRVIIYENYDYVLGEQEPAYTQSLLLNICLLEQIYLEIEKRIRNYNFLFYKDEHLVGLVESLEIAKEEINVLANSKGKIFSTFFKAQEPNKSFQALSSVSDELSRELSKIKNTLNNDGIFYTASENARLEVIKYDLEFLKDAFELVKAKIGADTKEPLTRSFNEQVKGLGSSGKGDKSNYYDYLKGVQESVANACNLKLNKYYRLNMKFNELEALSYEQRLQKDNLLLDVYFKYLELIKNENLSDKAKENLKEQLSLVI”, the “soluble on expression in E. coli” value was “not soluble”. For “MRVRNRKGATELLEANPQYVVLNPLEAKAKWRDLFGNDNPIHVEVGSGKGAFVSGMAKQNPDINYIGIDIQKSVLSYALDKVLEVGVPNIKLLWVDGSDLTDYFEDGEIDRLYLNFSDPWPKKRHEKRRLTYKTFLDTFKRILPENGEIHFKTDNRGLFEYSLVSFSQYGMKLNGVWLDLHASDFEGNVMTEYEQKFSNKGQVIYRVEAEF”, the “soluble on expression in E. coli” value was “soluble”. For “MTKKELRAQIRQRNREMLAAENRERWSQSIIERIRRLDIFADAKRIGLYHALPDEPDLTGLLREYVQTKQLFIPRVEGDDIAFYAYTGEADLEAEGAYGIAEPTADAATAILPSSLDLLLVPGVAFDRKGSRMGRGKGYYDRFLPATQVRLIGVTFSYRLLEELPTDPWDRPMDGVITESETLFCLEHHHHHH”, the “soluble on expression in E. coli” value was “soluble”. In the case of “MATNKREKQLERECHEQKTSQAVCETKEELEKSWKDFQKVSNEYKEAVTACRKYVEEKSRPKRTVLDGDMGEPTEDQEDTNDHARRRRHHNHEGHHGNDMKHRENMDRKKHGTHVDHHGRVRRNGDHDPNDPNVDHTGHNHRVKRSIDDDPSDTTIDHTRHNHRRKRNQDDDPTDTTIDHTGHNHRRRRSDDHDPNDPNVDHTGHNHRRKRNHDDDPSDTTIDHTGHNHRRRRSDDHDPNDPNVDHIGHNHHRRKRNHDDDPSDTTIDHTGHNHRRRRSEDHDPNDPNVDHTGHNHRRRRDQDDDPSDTTIDHTGHNHRRRRSDDHDPNDPNVDHTGHNHKRRHVIASRSRRTVCSTAGHDQLSAMSSKFTKHCERENICLPDEDLPKGKQQDDILALQKLRAKKYSEYLTQVSKCYGKLHGQSSGNDSWAPSAQSQEQYNPVYPSLSGTPNFFSSSAQAYEAAPYYPAKSTAAKTTSKPVQKPYRRHHQRPNKAWSSGSQQFHLVTIDPSKPHEKPSVSKIAEAAPKPIFKVARGTVKTVNKRGTKGVQKMPNHRLEGNSWETNGLQNQTARGGGGGRGRGRGSGGRGRGGFNRGGRFNGAPKPSNNKDDIPYVHLPDDSPAITLNVSSENITAFHGFDSVFTTKHNFPVLIDNKIYGSCDHYYQICKVTDLTGVSSDKLNRGVRDENGKPIVETIEDAEKKSHSALAKDIIKAANISKEKVDEWRNSKGLETIQKALHAKVTQSAHLREALKESGDNILVHAFARDSIYGTGCTIPAIKKWLDDLSKAGVKHLKIPATFPLNKTTVQHCPVFAQGRNVLGVILMQLRQKISSGEIQVVDMSRIFNALRVNNAPAEPMDTSSKFGFISDTKSIGTF”, the “soluble on expression in E. coli” value is reported as “not soluble”. For “MRSLTHIAKIELPPVRRVTYVKHYSIQPANLEFNAEGTPVSRDFDDVYFSNDNGLEETRYVFLGGNQLEARFPEHPHPLFVVAESGFGTGLNFLTLWQAFDQFREAHPQAQLQRLHFISFEKFPLTRADLALAHQHWPELAPWAEQLQAQWPMPLPGCHRLLLDEGRVTLDLWFGDINELISQLDDSLNQKVDAWFLDGFAPAKNPDMWTQNLFNAMARLARPGGTLATFTSAGFVRRGLQEAGFTMQKRKGFGRKREMLCGVMEQTLPLPCSTPWFNRTGSSKREVAIIGGGIASALLSLALLRRGWQVTLYCADEAPALGASGNRQGALYPLLSKHDEALNRFFSNGFTFARRLYDSLPVKFDHDWCGVTQLGWDEKSQHKIAQMLSMDLPEELAVAVEANAVEQITGVTTNCSGITYPQGGWLCPAELTRNVLELAQQQGLQIYYQYQLQDLSRKDDCWLLTFAGDQQATHSVVVLANGHQISRFSQTSSLPVYSVAGQVSHIPTTPELAKLKQVLCYDGYLTPQNPANQHHCIGASYHRGSEETAYSEDNQQQNRQRLIDCFPHAQWAKTVDVSKKEARCGVRCATRDHLPMVGNVPDYEATLVEYASLAEQKDKAVSAPVFDDLFMFAALGSRGLCSAPLCAEILAAQMSDEPIPMDASTLAALNPNRLWVRKLLKGKAVKAG”, the “soluble on expression in E. coli” value was “not soluble”. For “MGSDKIHHHHHHMAHVGLAMHFRRDPNDRRKELTVSRFIEVVHKNAVASRNTADAFIKEMLHYNIAEYVAGGDGRTHPLQPTAATIERFTGWVTAHLRTLDHIDGGDRLGRYLDRPDMLATLQPLIADGLLASKPVREPHQTFSLFIWLNNGGIVMDWLMSGIDPDHAGLERIPTSVVSIGDFAKWLKLSRTHLGRKLRTAEELGSIGWLGQRGHSVMWVSHGFYEEYMTVQAAKLAVVDNAFKACFPPSQGDD”, the “soluble on expression in E. coli” value was “not soluble”. With “MKTNVIIDGDACPVVNSVIELTKGTGIFVTILRSFSHFSQQIQPEHVKIVYVDDGPDAVDYKIVELASNNDIVITQDYGLASLLIDKVHTVMHHKGNIYHSNNIQSLLDQRYLNAQIRRRGLEHHHHHH” the “soluble on expression in E. coli” value was “not soluble”. In the case of “MSLRPGQVDNDVINLVAMLFEFILDDRHLHSVMKSLLGRLQIPILKVALTDKNFFNRGGHPARKLLNEMALAATGWTEKRPGQRDPLLDKISAVVNRILAEFSTDVSLFNELLDDFNQFSDLDQRRSDLVEQRLRDAEEGRARHEQATADTKELLHEAMDGRLLPEPVQDMLNGPWSHYLHWLALHESTDSEAWQRAKTLTEQLIWTIDPVPLTATTHELLQQAIPQVIEQLRGALEGVAWDGLSVEMVVRDLELVHLDVFQRLVIAPSEAAGNDHAQIDDSQEAPAVRADAVPSDTTNTSADVSHPAPALPVAADDPKEAVVARVPEPTRAQPVVAEEWLAKADGLRVGCWLELNRDGSQIRCKLAAFIRAVDKYIFVNRSGAKVAEYRRNELAEMMAQGHIEILDDGLIFDRALESIIDNLRTSRREGHHHHHH”, the “soluble on expression in E. coli” value is reported as “soluble”. In the case of “MGAQNSKRKDLKNINDEDYAHFMEKLKKHTDGKDKMTRDQFVAMFIPILGEYSSQFYFRLVKNEPQGVLLAKTILKCIDTGLGHFDQLADMLRFCFGDQKDQIMRNVVKIFCEGNKFTREDQVRLYDYFETENTKPVSELESFFSMCPLFAYCASFIFQRLLDKTGDSKMPILSDKTHLMGNIDQLVLNSHLPFDRRKNWTLLYSNMKHGQSFSQLVKCINGEGPCMIVIRSMKGRRFGFFASQGFLAGPQYRGTAECFLFQLAPKIATFDATGRTENYVYLNYQQQQHPNGLGIGGTESVWPLFIHEEFGGGTCQKNSSSFEPCHIAEEDEFKIKTIEAWRPGDKPQKSFEEQILLEERSPEKSIIDKDPEARAVLELAGKSMHSEAYRDPAPLLDGE”, the “soluble on expression in E. coli” value is reported as “not soluble”. With “MQLPPVHSVSLSEYFVSGNVIIHETAVIAPGVILEAAPDCQITIEAGVCIGLGSVISAHAGDVKIQEQTAIAPGCLVIGPVTIGATACLGSRSTVFQQDIDAQVLIPPGSLLMNRVADVQTVGASSPTTDSVTEKKSPSTANPIAPIPSPWDNEPPAKGTDSPSDQAKESIARQSRPSTAEAAEQISSNRSPGESTPTAPTVVTTAPLVSEEVQEKPPVVGQVYINQLLLTLFPERRYFSS” the “soluble on expression in E. coli” value was “not soluble”. In the case of “MGSDKIHHHHHHMSRRQHFAKVTPLLHRHGDYFVFIGFDYGTANCSVAVMRDGKPHLLKMENDSTLLPSMLCAPTREAVSEWLYRHHDVPADDDETQALLRRAIRYNREEDIDVTAKSVQFGLSSLAQYIDDPEEVWFVKSPKSFLGASGLKPQQVALFEDLVCAMMLHIRQQAQAQLPEAITQAVIGRPINFQGLGGDEANTQAQGILERAAKRAGFRDVVFQYEPVAAGLDYEATLQEEKRVLVVDIGGGTTDCSLLLMGPQWRSRLDREASLLGHSGCRIGGNDLDIALAFKNLMPLLGMGGETEKGIALPILPWWNAVAINDVPAQSDFYSSANGRLLNDLVRDAREPEKVALLQKVWRQRLSYRLVRSAEECKIALSSVAETRASLPFISNELATLISQRGLESALSQPLTRILEQVQLALDNAQEKPDVIYLTGGSARSPLIKKALAEQLPGIPIAGGDDFGSVTAGLARWAEVVFR”, the “soluble on expression in E. coli” value is reported as “not soluble”. For “MAAASISAIGCNQTLIGTSFYGGWGSSISGEDYQTMLSKTVAPPQQARVSRKAIRAVPMMKNVNEGKGLFAPLVVVTRNLVGKKRFNQLRGKAIALHSQVITEFCKSIGADAKQRQGLIRLAKKNGERLGFLA”, the “soluble on expression in E. coli” value was “not soluble”. For “MGSDKIHHHHHHMPHPYHERLNFKTELPLRVISHGTVGPKMVLPHWHRAVELAYAYRGQPGTAHIGRSTYHMLADHLYVINSEVVHSYETFLDEDNQIVTLLLPASWLRNAVADEQLPIWGPLDLDLQSAVYQPLAKAVQTLVAGVITPSSARSAYLTSLGAEYQLVGQLLKHLTVNGQVTSDQLPLPAPLRQAVTELQENYAQPVSIANLAEQLNYSSVYFSRYFKDYMGISPKAYLGQIRLERATSLLMTSQDSIQNIALKTGFSTEKNFFVTFKQYYQMTPRTYRQRYSAQQSWS”, the “soluble on expression in E. coli” value was “not soluble”. In the case of “MSLNMLVINGTPRKHGRTRIAASYIAALYHTDLIDLSEFVLPVFNGEAEQSELLKVQELKQRVTKADAIVLLSPEYHSGMSGALKNALDFLSSEQFKYKPVALLAVAGGGKGGINALNNMRTVMRGVYANVIPKQLVLDPVHIDVENATVAENIKESIKELVEELSMFAKAGNPGVEGGSHHHHHH”, the “soluble on expression in E. coli” value is reported as “soluble”. With “SSQQRPARKLPSLLLDPTEETVRRRCRDPINVEGLLPSKIRINLEDNVQYVSMRKALKVKRPRFDVSLVYLTRKFMDLVRSAPGGILDLNKVATKLGVRKRRVYDITNVLDGIDLVEKKSKNHIRWIGSDLSNFGAVPQQKKLQEELSDLSAMEDALDELIKDCAQQLFELTDDKENERLAYVTYQDIHSIQAFHEQIVIAVKAPAETRLDVPAPREDSITVHIRSTNGPIDVYLCEVEQGQTSNKRSEGVGTSSSESTHPEGPEEEENPQQSEELLEVSN” the “soluble on expression in E. coli” value was “soluble”.
